Measured values as given in US20220112296A1.

Biological target: biotinylated CD3 epsilon epitope peptide
Assay: SPR Biacore, method of Ref. Ex. 11

- Kd: 110 nM
B1: CE115HA000 (antibody, V domains shown)
VH: QVQLVESGGGVVQPGRSLRLSCAASGFTFSNAWMHWVRQAPGKGLEWVAQIKAKSNNYATYYAESVKGRFTISRDDSKNSLYLQMNSLKTEDTAVYYCRYVHYGAYYGVDAWGQGTTVTVSS
VL: DIVMTQSPLSLPVTPGEPASISCRSSQSLVHSNRNTYLHWYQQKPGQAPRLLIYKVSNRFSGVPDRFSGSGSGTDFTLKISRVEAEDVGVYYCGQGTQVPYTFGQGTKLEIK
